Consider 2 molecules from patent publication US20200223912A1 (Hoffmann-La Roche, published 2020).

This assay concerns the target T1, full length human Tau (not phosphorylated) (human, UniProt P10636 1-758).
T1 construct: Human Tau isoform F, 441 residues; also called full length tau; Tau protein
Kind of assay: Western blot on recombinant Tau, all antibodies 1 ug/ml. A general note: Immunoblotting shows a protein as a band on a membrane.

T1 sequence (P10636 other isoform, or with tags, fused parts or gaps limits assumed): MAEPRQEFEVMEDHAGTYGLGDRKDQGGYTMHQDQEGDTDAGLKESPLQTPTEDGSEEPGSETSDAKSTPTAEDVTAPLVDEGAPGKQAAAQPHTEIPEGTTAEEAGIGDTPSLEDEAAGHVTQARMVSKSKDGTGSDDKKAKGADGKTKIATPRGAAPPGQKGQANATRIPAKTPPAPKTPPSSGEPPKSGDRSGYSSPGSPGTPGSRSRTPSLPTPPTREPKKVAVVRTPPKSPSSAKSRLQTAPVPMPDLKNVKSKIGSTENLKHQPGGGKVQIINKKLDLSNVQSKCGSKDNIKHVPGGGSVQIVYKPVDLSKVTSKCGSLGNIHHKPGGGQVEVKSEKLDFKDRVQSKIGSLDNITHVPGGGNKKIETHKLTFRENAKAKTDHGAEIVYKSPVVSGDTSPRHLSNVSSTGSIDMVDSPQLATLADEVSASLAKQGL

B1: VH32/VL21 (antibody, V domains shown)
VH: EVQVLESGGGLVQPGGSLRLSCAVSGFSLSSNAINWVRQAPGKGLEWVGYIAVSGNTYYASWAKGRFTISRDNSKNTVYLQMNSLRAEDTAVYYCGKSNIWGQGTLVTVSS
VL: AQVMTQSPSSLSASVGDRVTITCRSSQSVRTNKLAWFQQKPGQPPKRLIYSASTLDFGVPSRFSGSGSGTEFTLTISSLQPEDFATYYCLGYFDSSADIVAFGGGTKVEIK
As to B1, the binding result was “no binding (tested: 1 ug/ml)”.

B2: VH32/VL22 (antibody, V domains shown)
VH: EVQVLESGGGLVQPGGSLRLSCAVSGFSLSSNAINWVRQAPGKGLEWVGYIAVSGNTYYASWAKGRFTISRDNSKNTVYLQMNSLRAEDTAVYYCGKSNIWGQGTLVTVSS
VL: AQVMTQSPSSLSASVGDRVTITCRSSQSVRTNRLAWFQQKPGQPPKRLIYSASTLDYGVPSRFSGSGSGTEFTLTISSLQPEDFATYYCLGYFDSSADIVAFGGGTKVEIK
As for B2, the binding result is reported as “no binding (tested: 1 ug/ml)”.
